In the supplement of paper PMC7125110:
± gives the standard error. Fewer inactive variants are shown than the library holds.

B1: glmS ribozyme (parent)
chain: AUAAAAGCGCCAGAACUACAGAAAUGUAGUUGACGAGGAGGAGGUUUAUCGAAUUUUCGGCGGAUGCCUCCAAA

Assays:
Details in all cases: with glucosamine-6-phosphate
glucosamine-6-phosphate [1] = variants of: B1; assay: self-cleavage kobs at 160 uM GlcN6P; higher = faster cleavage; RNA array
Outline: (§1)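 Glucosamine-6-phosphate (40 μM to 10 mM) in HEPES/KCl/Mg(OAc)2 buffer was flowed over sequenced MiSeq chips, and tiles were imaged over ~14 h. Barcoded ribozyme variants there had been transcribed in situ by E. coli RNA polymerase and were tracked through a hybridised Cy3 probe at 37 °C. One- or two-exponential decay fits to per-tile medians, normalised to baseline and to non-cleaving reference variants, gave kobs. kcat and KM came from weighted Michaelis–Menten fits across concentrations.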

glucosamine-6-phosphate [2] = variants of: B1; assay: self-cleavage kobs at 640 uM GlcN6P; higher = faster cleavage; RNA array
Outline: as §1

glucosamine-6-phosphate [3] = variants of: B1; assay: self-cleavage kobs at 2500 uM GlcN6P; higher = faster cleavage; RNA array
Outline: as §1

glucosamine-6-phosphate [4] = variants of: B1; assay: self-cleavage kobs at 10000 uM GlcN6P; higher = faster cleavage; RNA array
Outline: as §1

Variant | self-cleavage kobs at 160 uM GlcN6P (glucosamine-6-phosphate [1]) [s⁻¹] | self-cleavage kobs at 640 uM GlcN6P (glucosamine-6-phosphate [2]) [s⁻¹] | self-cleavage kobs at 2500 uM GlcN6P (glucosamine-6-phosphate [3]) [s⁻¹] | self-cleavage kobs at 10000 uM GlcN6P (glucosamine-6-phosphate [4]) [s⁻¹]
AUAAAAGCGGCAGAACUACAGAAAUGUAGUUUACGAGGAGGAGGUUUAUCGAAGUUUCGGCGGAUGCAUCCAAA | 5.61e-05 ± 2.2e-05 | – | – | –
AUAAAAGCGCCAGAACUACAGAAAUGUAUUUGACGAGGAGGAGGUUUAUCGGAUUUUCGGGGGAUGCUACCAAA | 4.87e-05 ± 1.6e-05 | 3.32e-05 ± 1.6e-05 | – | –
AUAAAAGCGCGAGAACUACAGAAAUGUAGUUGACGAGGCUGAGGUUUAUCGAAUUUUCGGCGGAUGCCUCCAAA | < 1e-05 | < 1e-05 | < 1e-05 | –
AUAAACGCGCCAGAACUACAGAAAUGUAGUUGACGAGGCGGAGGUUUAUCGAAUUUUCGGCGGAUGCCUUCAAA | < 1e-05 | – | < 1e-05 | –
AUAAAAGCGCCAGAACUACAGAAAUGUAGCUGACUAGGCGGAGGUUUAUCGAAUUUUCGGCGGAUGCCUCCAAA | < 1e-05 | – | < 1e-05 | –
AUAAAAGCGCCAGAACUACAGAAAUGUAGGUGACGUGGAGGAGGUUUAUCGAAUUUUCGGCGGAUGCCUCCAAA | < 1e-05 | < 1e-05 | – | –
AUAAAAGCGCAAGAACUACAGAAAUGUAGUUGACGAGCAGGCGGUUUAUCGAAUUUUCGGCGGAUGCCUCCAAA | < 1e-05 | – | < 1e-05 | –
AUAAAGGCGCCAGCACUACAGAAAUGUAGUUGACGAGGAGGGGGUUUAGCGAAUUUUCGGCGGAUGCCUCCAAA | < 1e-05 | – | – | –
AUAAAUGCGCCAGAACUACAGAAAUGUAGUGGACGAGGAGUAGGUUUAUCGAAUUUUCGGCGGCUGCCUCCAAA | < 1e-05 | < 1e-05 | < 1e-05 | –
AUAAAAGCGCAAGAACUACAGAAAUGUAGUUGACGAGGAGGAGGUUUAUCGACUUUUCGGCGGAUGGCUCCAAA | < 1e-05 | < 1e-05 | – | –
AUAAAAGCUCCAGAACUACAGAAAUGUAGUUGACGAGGAGGAGGUUUAUCGAAUUUUCGGUGGAUGCCUCCAAA | < 1e-05 | < 1e-05 | – | < 1e-05
AUAAAAGCGCCAGAACUACAGAAAUGUAGUUGACGAGGAGUAGGUUUAUCGAAUUUUUGGCGGAUGCCUCCAAA | < 1e-05 | < 1e-05 | – | –
AUAAAAGCGCCAGAACUACAGAAAUGUAGUUGGCGAGGCGGAGGUUUAUCGAAUUUUCGGCGGAUGCCUCCAAA | < 1e-05 | < 1e-05 | < 1e-05 | < 1e-05
AUAAAUGCGACAGAACUACAGAAAUGUAGGUGACGGGGAGGCGGUUUACCGAAUUUUCGGCGGAAGCCUCCAAA | < 1e-05 | < 1e-05 | < 1e-05 | –
AUAAAAGCGCCAGAACUACAGAAAUGUAGUUGACGAGGAGGAGGUUUAUGGAAUUAUGGGCGGAUGCCUCCAAA | 9.66e-05 ± 4.4e-05 | 0.00041 ± 0.00014 | 6.12e-05 ± 2.4e-05 | –
AUAAAAGCGCCAGAACUACAGAAAUGUAGUUGACGAAGAGGAGGUUUAACGAAUUUUCGGCGGAUGGCUCCAAA | < 1e-05 | – | < 1e-05 | –
